Test results from paper PMC8351461.

Target: Nucleocapsid protein (N) (SARS-CoV-2, UniProt P0DTC9 1-419)
Test: EMSA; no sdAb; Hill fixed at 5
Conditions: protein: recombinant, tags: His6 or His6-MBP N-terminal fusion vector, TEV cleavage, chain copies: 2

B1: 7mer dsRNA (dsRNA)
RNA 1: CACUGAC
RNA 2: GUCAGUG
Q: Which Kd (label: 5'-FAM on strand 1, blunt) does the source give for B1 here?
A: Its Kd is 480 ± 30 nM.

Q: CACUGAC (ssRNA) [7mer ssRNA] was tested. Which Kd (label: 5'-FAM, single strand) did it give?
A: The Kd was 560 ± 60 nM.
